Assay results as given in the supplement of paper PMC10065799, “High-throughput profiling of sequence recognition by tyrosine kinases and SH2 domains using bacterial peptide display” (eLife, 2023).

Experiments:
Jak2 = Jak2 (UniProt O60674); assay: phosphorylation enrichment, bacterial display (enrichment ratio); higher = better substrate or ligand; peptides without Tyr show the background
Fyn = Fyn (UniProt P06241); assay: as above
c-Src = assay: as above
MERTK = MERTK (UniProt Q12866); assay: as above
Chain of MERTK (Q12866 whole entry, looked up): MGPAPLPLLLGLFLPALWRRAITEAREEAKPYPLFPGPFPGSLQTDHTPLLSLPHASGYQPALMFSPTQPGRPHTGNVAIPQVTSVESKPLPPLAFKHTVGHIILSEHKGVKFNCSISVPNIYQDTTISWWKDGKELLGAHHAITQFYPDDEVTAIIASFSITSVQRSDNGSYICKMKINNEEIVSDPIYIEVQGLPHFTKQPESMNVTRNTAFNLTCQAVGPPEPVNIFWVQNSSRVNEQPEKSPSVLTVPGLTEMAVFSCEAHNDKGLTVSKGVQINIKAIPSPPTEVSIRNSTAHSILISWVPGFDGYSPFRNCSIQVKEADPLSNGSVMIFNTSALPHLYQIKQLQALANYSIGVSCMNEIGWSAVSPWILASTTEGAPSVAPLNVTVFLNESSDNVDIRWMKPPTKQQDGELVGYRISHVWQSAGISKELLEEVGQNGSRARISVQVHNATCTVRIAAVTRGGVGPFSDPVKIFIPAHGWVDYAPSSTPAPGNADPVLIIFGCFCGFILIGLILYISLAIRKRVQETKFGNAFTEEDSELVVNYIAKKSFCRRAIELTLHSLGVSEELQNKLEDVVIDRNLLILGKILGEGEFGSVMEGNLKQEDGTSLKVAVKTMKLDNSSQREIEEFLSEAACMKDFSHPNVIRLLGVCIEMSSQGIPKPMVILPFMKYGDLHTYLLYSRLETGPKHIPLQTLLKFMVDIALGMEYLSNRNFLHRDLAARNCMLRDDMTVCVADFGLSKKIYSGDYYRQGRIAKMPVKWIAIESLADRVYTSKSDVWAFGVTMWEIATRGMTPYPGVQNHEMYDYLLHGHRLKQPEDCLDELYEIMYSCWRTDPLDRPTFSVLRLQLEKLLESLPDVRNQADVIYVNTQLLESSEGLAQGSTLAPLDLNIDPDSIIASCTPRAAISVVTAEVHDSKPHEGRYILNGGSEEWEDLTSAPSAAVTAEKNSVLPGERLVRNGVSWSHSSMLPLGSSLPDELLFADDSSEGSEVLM

Fes = Fes (UniProt P07332); assay: as above
EPHB1 = EPHB1 (UniProt P54762); assay: as above
Fer (mouse) = assay: as above
FGFR1 = FGFR1 (UniProt P11362); assay: as above
Chain of FGFR1 (P11362 whole entry, looked up): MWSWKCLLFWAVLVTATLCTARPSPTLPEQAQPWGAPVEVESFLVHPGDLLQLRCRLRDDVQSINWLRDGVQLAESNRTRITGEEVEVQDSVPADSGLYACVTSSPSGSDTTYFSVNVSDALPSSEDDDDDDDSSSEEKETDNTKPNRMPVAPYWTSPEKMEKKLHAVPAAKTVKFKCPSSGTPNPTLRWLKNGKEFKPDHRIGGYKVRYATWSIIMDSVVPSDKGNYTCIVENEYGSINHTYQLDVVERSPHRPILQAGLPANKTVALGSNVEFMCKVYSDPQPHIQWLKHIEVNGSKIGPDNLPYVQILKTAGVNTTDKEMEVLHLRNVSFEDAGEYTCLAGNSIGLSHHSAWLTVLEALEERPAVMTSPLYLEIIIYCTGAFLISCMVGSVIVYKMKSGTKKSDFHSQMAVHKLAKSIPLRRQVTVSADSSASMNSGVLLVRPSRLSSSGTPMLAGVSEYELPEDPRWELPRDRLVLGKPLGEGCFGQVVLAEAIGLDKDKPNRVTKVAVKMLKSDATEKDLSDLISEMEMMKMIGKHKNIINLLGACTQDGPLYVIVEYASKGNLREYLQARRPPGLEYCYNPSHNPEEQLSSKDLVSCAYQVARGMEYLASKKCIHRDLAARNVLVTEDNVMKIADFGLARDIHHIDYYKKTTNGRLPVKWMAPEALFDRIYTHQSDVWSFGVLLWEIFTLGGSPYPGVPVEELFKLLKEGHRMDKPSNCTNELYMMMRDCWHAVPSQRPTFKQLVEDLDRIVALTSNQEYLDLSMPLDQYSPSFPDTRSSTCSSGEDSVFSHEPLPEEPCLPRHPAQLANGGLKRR

FGFR3 = FGFR3 (UniProt P22607); assay: as above
Chain of FGFR3 (P22607 whole entry, looked up): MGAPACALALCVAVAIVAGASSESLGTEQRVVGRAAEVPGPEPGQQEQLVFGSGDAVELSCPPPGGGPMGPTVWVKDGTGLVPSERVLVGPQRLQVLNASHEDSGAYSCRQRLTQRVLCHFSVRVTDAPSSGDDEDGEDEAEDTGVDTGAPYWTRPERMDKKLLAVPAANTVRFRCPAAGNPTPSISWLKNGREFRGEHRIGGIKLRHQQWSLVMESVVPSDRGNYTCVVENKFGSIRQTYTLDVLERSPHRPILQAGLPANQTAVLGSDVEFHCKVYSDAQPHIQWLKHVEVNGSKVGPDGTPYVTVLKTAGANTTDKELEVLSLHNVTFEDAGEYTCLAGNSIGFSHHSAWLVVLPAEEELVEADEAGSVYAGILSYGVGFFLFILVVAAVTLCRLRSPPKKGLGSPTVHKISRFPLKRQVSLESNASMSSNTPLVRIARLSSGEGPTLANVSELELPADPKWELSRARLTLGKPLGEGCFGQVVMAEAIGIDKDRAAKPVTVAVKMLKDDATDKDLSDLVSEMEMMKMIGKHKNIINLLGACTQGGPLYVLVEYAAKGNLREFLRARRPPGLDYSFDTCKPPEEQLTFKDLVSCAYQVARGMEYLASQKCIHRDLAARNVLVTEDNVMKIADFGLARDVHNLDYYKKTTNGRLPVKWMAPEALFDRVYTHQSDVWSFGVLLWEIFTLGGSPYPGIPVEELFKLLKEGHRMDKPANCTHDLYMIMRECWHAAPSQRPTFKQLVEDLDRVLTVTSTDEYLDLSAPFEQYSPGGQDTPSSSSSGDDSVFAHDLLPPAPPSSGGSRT

c-Abl (mouse) = assay: as above
AncSZ = assay: as above
Hck = Hck (UniProt P08631); assay: as above
Chain of Hck (P08631 whole entry, looked up): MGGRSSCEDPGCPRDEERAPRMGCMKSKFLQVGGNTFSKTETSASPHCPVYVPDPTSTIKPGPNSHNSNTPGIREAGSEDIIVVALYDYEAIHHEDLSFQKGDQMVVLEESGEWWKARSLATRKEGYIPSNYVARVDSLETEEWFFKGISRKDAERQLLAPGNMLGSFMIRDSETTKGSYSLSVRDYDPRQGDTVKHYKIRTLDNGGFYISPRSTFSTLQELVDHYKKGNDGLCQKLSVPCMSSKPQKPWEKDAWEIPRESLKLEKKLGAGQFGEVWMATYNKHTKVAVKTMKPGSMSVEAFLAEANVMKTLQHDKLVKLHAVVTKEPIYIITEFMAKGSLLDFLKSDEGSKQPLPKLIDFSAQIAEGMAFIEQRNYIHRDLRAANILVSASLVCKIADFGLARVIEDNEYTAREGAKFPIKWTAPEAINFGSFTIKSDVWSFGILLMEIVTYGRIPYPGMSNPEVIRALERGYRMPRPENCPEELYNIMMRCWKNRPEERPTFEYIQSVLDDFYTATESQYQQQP

EPHB2 = EPHB2 (UniProt P29323); assay: as above
Chain of EPHB2 (P29323 whole entry, looked up): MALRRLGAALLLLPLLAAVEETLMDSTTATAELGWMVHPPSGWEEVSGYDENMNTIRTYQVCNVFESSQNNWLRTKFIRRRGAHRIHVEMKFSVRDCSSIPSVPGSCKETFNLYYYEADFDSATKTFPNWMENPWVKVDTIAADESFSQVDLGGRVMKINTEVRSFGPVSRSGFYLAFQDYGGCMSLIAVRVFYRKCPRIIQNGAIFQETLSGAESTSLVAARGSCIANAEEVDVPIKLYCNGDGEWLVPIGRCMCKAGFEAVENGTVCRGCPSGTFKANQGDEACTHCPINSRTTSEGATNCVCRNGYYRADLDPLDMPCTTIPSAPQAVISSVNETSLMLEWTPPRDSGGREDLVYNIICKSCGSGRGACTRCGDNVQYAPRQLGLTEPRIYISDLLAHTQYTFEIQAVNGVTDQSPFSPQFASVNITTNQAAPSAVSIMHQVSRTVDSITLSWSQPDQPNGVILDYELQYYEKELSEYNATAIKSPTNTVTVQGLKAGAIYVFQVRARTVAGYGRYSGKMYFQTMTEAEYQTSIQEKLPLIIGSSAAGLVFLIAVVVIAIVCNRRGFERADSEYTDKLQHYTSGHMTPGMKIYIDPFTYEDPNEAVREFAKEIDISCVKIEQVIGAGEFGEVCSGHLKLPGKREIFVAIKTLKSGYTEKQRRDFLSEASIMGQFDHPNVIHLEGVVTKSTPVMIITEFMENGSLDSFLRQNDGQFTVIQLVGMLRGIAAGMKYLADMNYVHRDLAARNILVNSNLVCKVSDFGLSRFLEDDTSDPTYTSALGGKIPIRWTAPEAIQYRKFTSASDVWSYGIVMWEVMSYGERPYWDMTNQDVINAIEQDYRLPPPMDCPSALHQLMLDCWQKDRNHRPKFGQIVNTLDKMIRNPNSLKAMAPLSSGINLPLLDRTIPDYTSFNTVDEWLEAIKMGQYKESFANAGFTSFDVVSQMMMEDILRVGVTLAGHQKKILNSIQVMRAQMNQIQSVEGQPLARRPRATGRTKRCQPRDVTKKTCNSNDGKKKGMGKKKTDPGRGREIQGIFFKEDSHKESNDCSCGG

Grb2 SH2 = Grb2 SH2 (UniProt P62993); assay: SH2 binding enrichment of the phosphorylated peptide, bacterial display (enrichment ratio); higher = better substrate or ligand; peptides without Tyr show the background
Chain of Grb2 SH2 (P62993 whole entry, looked up): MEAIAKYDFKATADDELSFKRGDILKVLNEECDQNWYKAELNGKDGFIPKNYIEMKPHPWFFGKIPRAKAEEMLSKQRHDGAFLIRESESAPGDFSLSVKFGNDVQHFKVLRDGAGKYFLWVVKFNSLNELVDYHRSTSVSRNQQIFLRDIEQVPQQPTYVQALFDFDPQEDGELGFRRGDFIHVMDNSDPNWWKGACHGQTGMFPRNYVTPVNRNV

SHP2-C SH2 = assay: as above
c-Src SH2 = assay: as above
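For SH2 binding enrichment of the phosphorylated peptide, bacterial display in this document: peptide library displayed on the E. coli surface as eCPX fusions, selected cells deep-sequenced, score is each peptide's frequency after selection divided by its frequency in the input.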
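For phosphorylation enrichment, bacterial display in this document: 11-residue human phosphosite peptides and single-mutation variants displayed on the E. coli surface, counted by deep sequencing, each peptide's frequency after selection divided by its frequency in the unselected input library; frequency after pTyr selection over input frequency; kinase dosed for 20-30% of maximal phosphorylation in three min.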

Chain of Fyn (P06241 whole entry, looked up): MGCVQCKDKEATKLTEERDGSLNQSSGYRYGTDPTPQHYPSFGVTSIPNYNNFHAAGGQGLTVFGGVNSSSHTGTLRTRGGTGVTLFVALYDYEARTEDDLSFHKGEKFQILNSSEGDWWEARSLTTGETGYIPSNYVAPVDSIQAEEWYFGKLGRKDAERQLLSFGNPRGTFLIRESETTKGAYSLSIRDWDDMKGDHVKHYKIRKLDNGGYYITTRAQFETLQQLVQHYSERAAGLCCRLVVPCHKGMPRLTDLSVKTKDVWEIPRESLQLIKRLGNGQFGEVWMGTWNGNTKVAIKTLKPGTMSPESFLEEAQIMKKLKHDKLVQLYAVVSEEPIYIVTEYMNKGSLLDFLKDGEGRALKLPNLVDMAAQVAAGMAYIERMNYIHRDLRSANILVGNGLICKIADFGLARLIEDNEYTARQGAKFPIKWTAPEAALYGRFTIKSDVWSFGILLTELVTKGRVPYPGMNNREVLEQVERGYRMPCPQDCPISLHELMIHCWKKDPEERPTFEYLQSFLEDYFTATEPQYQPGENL

| Sequence | phosphorylation enrichment (Jak2) | phosphorylation enrichment (Fyn) | phosphorylation enrichment (c-Src) | phosphorylation enrichment (MERTK) | phosphorylation enrichment (Fes) | phosphorylation enrichment (EPHB1) | phosphorylation enrichment (Fer (mouse)) | phosphorylation enrichment (FGFR1) | phosphorylation enrichment (FGFR3) | phosphorylation enrichment (c-Abl (mouse)) | phosphorylation enrichment (AncSZ) | phosphorylation enrichment (Hck) | phosphorylation enrichment (EPHB2) | SH2 binding enrichment (Grb2 SH2) | SH2 binding enrichment (SHP2-C SH2) | SH2 binding enrichment (c-Src SH2) |
| --- | --- | --- | --- | --- | --- | --- | --- | --- | --- | --- | --- | --- | --- | --- | --- | --- |
| EERNPYFSSAR [MCCC2_Y520_G517R_YF] | 0.779 | 0.475 | 1.08 | 0.407 | 0.752 | 0.466 | 0.36 | 0.486 | 0.404 | 0.624 | 0.769 | 0.659 | 0.392 | 0.859 | 0.789 | 0.446 |
| GRLPEYNTRIA [CCDC151_Y542] | 0.55 | 0.372 | 0.408 | 0.45 | 0.589 | 0.341 | 0.339 | 0.404 | 0.543 | 0.513 | 0.512 | 0.416 | 0.44 | 0.949 | 0.643 | 0.482 |
| ILTLKYLIEHG [ACTG1_Y69_P70L] | 1.08 | 0.526 | 0.483 | 0.463 | 1.32 | 0.689 | 0.562 | 0.466 | 0.839 | 0.84 | 1.05 | 0.557 | 0.618 | 1.25 | 1.03 | 0.88 |
| TFVKSYTIHFS [F5_Y2153_M2148T_YF] | 1.28 | 0.468 | 0.447 | 0.434 | 1.29 | 0.599 | 0.521 | 0.517 | 0.899 | 0.873 | 1.04 | 0.424 | 0.468 | 0.97 | 0.729 | 0.537 |
| MFNPCYGLFEY [NEDD4L_Y680_Y679C] | 1.11 | 5.24 | 5.01 | 1.69 | 1.32 | 0.739 | 1.6 | 0.616 | 0.752 | 0.842 | 1.26 | 2.54 | 0.604 | 0.867 | 0.633 | 0.641 |
| PIAPVYAASMV [ACAT1_Y331] | 1.34 | 14.3 | 10.5 | 5.19 | 1.07 | 2.45 | 8.12 | 0.744 | 0.548 | 48.5 | 0.837 | 13.5 | 2.19 | 0.882 | 0.699 | 0.506 |
| EKLQKYFRKNP [EHHADH_Y682_Q685K_YF] | 0.991 | 0.527 | 0.613 | 0.567 | 0.895 | 0.693 | 0.514 | 0.473 | 0.553 | 0.763 | 0.613 | 0.646 | 0.615 | 0.914 | 0.802 | 0.549 |
| SSEYHYVGGFY [CTSC_Y347] | 2.69 | 3.79 | 3.33 | 6.87 | 0.787 | 9.7 | 2.24 | 13.4 | 11.3 | 14.9 | 3.53 | 4.79 | 12.9 | 0.998 | 4.12 | 1.49 |
| VHFARYLAMNK [HARS1_Y138_P134H] | 0.661 | 0.557 | 0.553 | 0.509 | 0.902 | 0.504 | 0.44 | 0.511 | 0.771 | 0.565 | 0.864 | 0.506 | 0.555 | 0.931 | 0.72 | 0.403 |
| WLFFRYLAIGC [ATP2A2_Y836] | 1.49 | 0.477 | 0.432 | 0.482 | 1.55 | 0.633 | 0.573 | 0.503 | 0.798 | 1.09 | 1.51 | 0.462 | 0.496 | 0.826 | 0.573 | 0.36 |
| ENRLDYGSAWA [AR_Y395_P392R] | 0.824 | 0.498 | 0.435 | 0.364 | 1.25 | 0.359 | 0.352 | 0.353 | 0.503 | 0.501 | 0.773 | 0.311 | 0.453 | 0.955 | 0.735 | 0.499 |
| FGLDRYQCDCT [PTGS1_Y54] | 0.874 | 0.524 | 0.422 | 0.454 | 1.23 | 0.625 | 0.492 | 0.587 | 0.861 | 0.796 | 1.1 | 0.499 | 0.613 | 1.01 | 0.849 | 0.942 |
| GFKVRYATWSI [FGFR1_Y210_YF] | 0.997 | 0.494 | 0.392 | 0.499 | 1.22 | 0.714 | 0.512 | 0.463 | 0.795 | 0.711 | 1.11 | 0.512 | 0.534 | 1.64 | 1.63 | 1.16 |
| KPYRVYCDMNT [FGB_Y269] | 1.1 | 0.6 | 0.562 | 0.492 | 1.13 | 1.53 | 0.68 | 0.51 | 0.789 | 0.779 | 1.04 | 0.691 | 0.783 | 1.03 | 0.658 | 1.04 |
| KYWREYILSLE [GPC3_Y299] | 0.974 | 0.427 | 0.856 | 0.39 | 1.05 | 0.541 | 0.366 | 0.499 | 0.752 | 0.677 | 1.03 | 0.461 | 0.569 | 1.48 | 1.71 | 1.37 |
| MGIMLYGVDSR [PKD1_Y3143_V3138M] | 1.03 | 0.467 | 0.496 | 0.475 | 1.08 | 0.546 | 0.529 | 0.449 | 0.694 | 0.745 | 0.931 | 0.55 | 0.576 | 0.61 | 0.653 | 0.439 |
